B1: MIA2 (parent)
chain: DMVSNIELPTRIHEEVYFEPSSSK
B2: DULLARD (parent)
chain: LVVFTASMEIYGSAVADKLDNSRS
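Note: lentivirally expressed fusions sorted by FACS into six bins by GFP to DsRed ratio, PSI derived from sequencing read proportions per bin multiplied by bin number.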

The variants in one data set derive from B1. Description: protein stability index of a GFP-peptide fusion (GPS, HEK-293T) (PSI 1-6); higher = more stable. The following applies: c terminus: a fixed tail appended.
Take DMVSNIELPTRIHEMVYFEPSSSK [E15M]: the protein stability index was found to be 2.72.

Regarding DMVSNIELPTRIHEAVYFEPSSSK [E15A], the protein stability index was determined as 3.35.

As to DMVSNIELPTRIHEEVYFEPSESK [S22E], the protein stability index was 4.13.

Regarding DMVSNIELPTGIHEEVYFEPSSSK [R11G], the protein stability index is 4.86.

Consider DMVSNIELPTRIHEELYFEPSSSK [V16L], for which the protein stability index was determined as 4.09.

Take DMVSNIELPTRIHEEIYFEPSSSK [V16I]: the protein stability index was determined as 3.87.

Take DMVSNIELPTRIHEEHYFEPSSSK [V16H]: the protein stability index is 3.55.

As for DMVSNIELPTRIHEEGYFEPSSSK [V16G], the protein stability index is 4.16.

For DMVSNIELPTRIHEEQYFEPSSSK [V16Q], the protein stability index is 4.02.

As to DMVSNIELPTRIHEECYFEPSSSK [V16C], the protein stability index came out at 4.33.

With GMVSNIELPTRIHEEVYFEPSSSK [D1G], the protein stability index was 3.65.

Consider FMVSNIELPTRIHEEVYFEPSSSK [D1F], for which the protein stability index came to 2.87.

For the variant PMVSNIELPTRIHEEVYFEPSSSK [D1P], the protein stability index amounted to 4.09.

Turning to AMVSNIELPTRIHEEVYFEPSSSK [D1A], the protein stability index was 3.62.

For the variant DMVSNIELVTRIHEEVYFEPSSSK [P9V], the protein stability index turned out to be 2.94.

Regarding DMVSNIELCTRIHEEVYFEPSSSK [P9C], the protein stability index was found to be 3.53.

For DAVSNIELPTRIHEEVYFEPSSSK [M2A], the protein stability index is 5.19.

For DWVSNIELPTRIHEEVYFEPSSSK [M2W], the protein stability index worked out at 2.8.

As for DMVSNYELPTRIHEEVYFEPSSSK [I6Y], the protein stability index was 4.03.

As to DMVSNIELPTRIHEEVYYEPSSSK [F18Y], the protein stability index is 4.76.

With DMVSNIELPTRIHEEVYNEPSSSK [F18N], the protein stability index is 4.68.

Turning to DMVSNIELPTRIHEEVAFEPSSSK [Y17A], the protein stability index worked out at 3.67.

For the variant DMVSNIELPTRIHEEVEFEPSSSK [Y17E], the protein stability index worked out at 4.95.

As to DMVTNIELPTRIHEEVYFEPSSSK [S4T], the protein stability index is 3.73.

As for DMVANIELPTRIHEEVYFEPSSSK [S4A], the protein stability index came to 3.97.

With DMVHNIELPTRIHEEVYFEPSSSK [S4H], the protein stability index was 4.29.

With DMVWNIELPTRIHEEVYFEPSSSK [S4W], the protein stability index stood at 2.6.

For DMVSNIEHPTRIHEEVYFEPSSSK [L8H], the protein stability index was 4.56.

With DMVSNIEPPTRIHEEVYFEPSSSK [L8P], the protein stability index worked out at 4.4.

Regarding DMVSNIEGPTRIHEEVYFEPSSSK [L8G], the protein stability index came to 4.74.

As for DMVSNIEMPTRIHEEVYFEPSSSK [L8M], the protein stability index came out at 3.46.

With DMVSNIELPNRIHEEVYFEPSSSK [T10N], the protein stability index was 3.61.

Turning to DMVSNIELPERIHEEVYFEPSSSK [T10E], the protein stability index came out at 4.01.

Regarding DMVSNIDLPTRIHEEVYFEPSSSK [E7D], the protein stability index worked out at 3.83.

In the case of DMVSNIALPTRIHEEVYFEPSSSK [E7A], the protein stability index was 3.65.

As to DMVSNIELPTRIHEEVYFEPSSMK [S23M], the protein stability index came out at 3.29.

Take DMVSNIELPTRIHEEVYFEPSSAK [S23A]: the protein stability index is 3.2.

DMVSNIELPTRIHPEVYFEPSSSK [E14P]: the protein stability index was found to be 3.16.

For DMVSNIELPTRIHCEVYFEPSSSK [E14C], the protein stability index came to 1.91.

On to DMVSNIELPTRILEEVYFEPSSSK [H13L], for which the protein stability index worked out at 3.99.

Turning to DMVSNIELPTRIPEEVYFEPSSSK [H13P], the protein stability index turned out to be 4.32.

For DMVSNIELPTRIHEEVYFEPHSSK [S21H], the protein stability index was determined as 3.97.

In the case of DMVSNIELPTRIHEEVYFEPPSSK [S21P], the protein stability index was 4.3.

Consider DMVSNIELPTRIHEEVYFEPKSSK [S21K], for which the protein stability index worked out at 3.46.

Turning to DMVSNIELPTRIHEEVYFEPISSK [S21I], the protein stability index worked out at 4.

As for DMVSNIELPTRIHEEVYFEPMSSK [S21M], the protein stability index was found to be 3.4.

For the variant DMVSNIELPTRIHEEVYFEPDSSK [S21D], the protein stability index came to 4.56.

With DMVSQIELPTRIHEEVYFEPSSSK [N5Q], the protein stability index came to 4.33.

Consider DMVSCIELPTRIHEEVYFEPSSSK [N5C], for which the protein stability index is 4.04.

In the case of DMVSNIELPTRIHEEVYFETSSSK [P20T], the protein stability index is 3.62.

DMVSNIELPTRIHEEVYFEKSSSK [P20K]: the protein stability index is 3.84.

Turning to DMVSNIELPTRIHEEVYFNPSSSK [E19N], the protein stability index was determined as 3.41.

In the case of DMVSNIELPTRIHEEVYFEPSSSM [K24M], the protein stability index is 3.57.

With DMVSNIELPTRIHEEVYFEPSSSY [K24Y], the protein stability index is 3.32.

For the variant DMFSNIELPTRIHEEVYFEPSSSK [V3F], the protein stability index amounted to 3.73.

Consider DMSSNIELPTRIHEEVYFEPSSSK [V3S], for which the protein stability index was found to be 4.26.

For the variant DMESNIELPTRIHEEVYFEPSSSK [V3E], the protein stability index turned out to be 4.65.

On to DMISNIELPTRIHEEVYFEPSSSK [V3I], for which the protein stability index came to 4.26.

For the variant DMWSNIELPTRIHEEVYFEPSSSK [V3W], the protein stability index is 3.15.

With DMVSNIELPTRTHEEVYFEPSSSK [I12T], the protein stability index came to 3.98.

The variants in another data set derive from B2. The data set is described as above. The following applies: c terminus: a fixed tail appended.
For LTVFTASMEIYGSAVADKLDNSRS [V2T], the protein stability index was found to be 1.72.

As for LWVFTASMEIYGSAVADKLDNSRS [V2W], the protein stability index was 3.1.

As to LLVFTASMEIYGSAVADKLDNSRS [V2L], the protein stability index was 1.99.

As for LCVFTASMEIYGSAVADKLDNSRS [V2C], the protein stability index stood at 1.61.

On to LDVFTASMEIYGSAVADKLDNSRS [V2D], for which the protein stability index was found to be 3.02.

For the variant LPVFTASMEIYGSAVADKLDNSRS [V2P], the protein stability index is 2.93.

On to LRVFTASMEIYGSAVADKLDNSRS [V2R], for which the protein stability index amounted to 2.25.

As for LNVFTASMEIYGSAVADKLDNSRS [V2N], the protein stability index was determined as 2.5.

Regarding LIVFTASMEIYGSAVADKLDNSRS [V2I], the protein stability index was 2.18.

Consider LSVFTASMEIYGSAVADKLDNSRS [V2S], for which the protein stability index turned out to be 2.35.

For LQVFTASMEIYGSAVADKLDNSRS [V2Q], the protein stability index was 1.96.

Regarding LHVFTASMEIYGSAVADKLDNSRS [V2H], the protein stability index stood at 2.16.

In the case of LAVFTASMEIYGSAVADKLDNSRS [V2A], the protein stability index came out at 2.1.

In the case of LMVFTASMEIYGSAVADKLDNSRS [V2M], the protein stability index came to 2.25.

Turning to LEVFTASMEIYGSAVADKLDNSRS [V2E], the protein stability index was 2.46.

As for LKVFTASMEIYGSAVADKLDNSRS [V2K], the protein stability index was 1.78.

LGVFTASMEIYGSAVADKLDNSRS [V2G]: the protein stability index is 2.52.

With PVVFTASMEIYGSAVADKLDNSRS [L1P], the protein stability index came out at 3.74.

Take FVVFTASMEIYGSAVADKLDNSRS [L1F]: the protein stability index came to 2.

For the variant YVVFTASMEIYGSAVADKLDNSRS [L1Y], the protein stability index amounted to 2.57.

With SVVFTASMEIYGSAVADKLDNSRS [L1S], the protein stability index came to 1.94.

Take TVVFTASMEIYGSAVADKLDNSRS [L1T]: the protein stability index worked out at 1.82.

VVVFTASMEIYGSAVADKLDNSRS [L1V]: the protein stability index turned out to be 3.46.

With DVVFTASMEIYGSAVADKLDNSRS [L1D], the protein stability index was 2.44.

Regarding RVVFTASMEIYGSAVADKLDNSRS [L1R], the protein stability index stood at 2.49.

As for AVVFTASMEIYGSAVADKLDNSRS [L1A], the protein stability index amounted to 1.73.

Turning to CVVFTASMEIYGSAVADKLDNSRS [L1C], the protein stability index stood at 1.94.

For the variant HVVFTASMEIYGSAVADKLDNSRS [L1H], the protein stability index was 1.19.

On to NVVFTASMEIYGSAVADKLDNSRS [L1N], for which the protein stability index is 2.9.

On to QVVFTASMEIYGSAVADKLDNSRS [L1Q], for which the protein stability index turned out to be 2.52.

EVVFTASMEIYGSAVADKLDNSRS [L1E]: the protein stability index was determined as 2.25.

Turning to KVVFTASMEIYGSAVADKLDNSRS [L1K], the protein stability index came out at 2.09.

Regarding MVVFTASMEIYGSAVADKLDNSRS [L1M], the protein stability index is 2.29.

GVVFTASMEIYGSAVADKLDNSRS [L1G]: the protein stability index was determined as 2.31.
